Reference: US20200181597A1, “Composition and Application of Arginine-depleting Agents for Cancer, Obesity, Metabolic Disorders, and Related Complications and Comorbidities” (THE HONG KONG POLYTECHNIC UNIVERSITY, priority 2018, published 2020)

Key:
[1] = LFD-fed mice treated for 8 months: anti-drug antibody and safety; type: in vivo, C57BL/6J male mice
Protocol: FIG. 56 illustrates that C57BL/6J male mice fed a LFD and received an intraperitoneal injection of 500U N-ABD094-rhArg (SEQ ID NO: 50) [LFD(rhArg) group] once a week for 8 months starting from 5 week old had developed non-neutralizing anti-drug antibody. (A) Using an ELISA assay, anti-rhArg antibodies, with an average antibody titer of 10^8, could be detected in the plasma of LFD-fed mice treated with N-ABD094-rhArg. (B) The plasma was incubated with 1,000U/mL N-ABD094-rhArg (rhArg*) for 1 hr followed by measurement of arginase activity. There was no reduction in arginase activity, showing that the antibodies generated in the animal against the drug were not neutralizing antibodies. Data are expressed as mean±SEM, n=3 for each group.
Generation of neutralizing antibodies may affect the pharmacodynamics, pharmacokinetic, stability and efficacy of a drug. To determine the immunogenic response, 8 week old C57BL/6J male mice fed a LFD received i.p. injection of 500U of N-ABD094-rhArg (SEQ ID NO: 50), or saline as vehicle control, at 7-day intervals for 8 months.
To assess the safety of long-term use, serum and urine samples from LFD-fed mice treated with N-ABD094-rhArg (SEQ ID NO: 50) for 8 months were collected for analysis of ALT and AST, which are commonly used biomarkers of liver damage, and serum creatinine and urine albumin/creatinine ratio for assessing kidney functions.

HCT116 = assay: cells; conditions: HCT116, Day 3
Protocol: (§1) The in vitro efficacy of ABD and rhArg fusion protein was tested on human colon cancer cell lines. Human colon cancer cell lines (HCT116, LOVO and HT29) were seeded in 96-well plate at densities of 5×10^3 cells/well. After 1 day of incubation, the culture medium was replaced with medium containing different concentrations (2, 0.4, 0.08, 0.016 and 0.0032 U/ml) of N-ABD094-rhArg (SEQ ID NO: 50). MTT assay was conducted at Day 3 [3 days after N-ABD094-rhArg (SEQ ID NO: 50) treatment] to determine the IC50 values. The culture medium was replaced with MTT solution (1 mg/ml) (Invitrogen) and incubated at 37° C. for 4 h. After incubation, MTT solution was replaced with dimethyl sulfoxide (DMSO), and the absorbance at 570 nm was measured with a reference of 650 nm. The cell viability was determined by dividing the absorbance of N-ABD094-rhArg-treated cells by the average absorbance of untreated cells. […] Three independent sets of experiments (n=3) were performed for each cell line.
(§2) MTT assay was conducted at Day 3. Three independent sets of experiments (n=3) were performed for each cell line.
(§3) For drug-combination assay, a non-constant ratio analysis was performed (Hastak et al., 2010, Cancer Res. 70(20):7970-7980). Colon cancer cells were seeded and after 1 day of incubation, the culture medium was replaced with medium containing different concentrations of N-ABD094-rhArg (SEQ ID NO: 50) (2, 0.4, 0.08, 0.016, 0.0032 U/ml) combined with fixed amount of CQ according to its IC50. MTT assay was conducted at Day 3. The combination index (CI) of combined N-ABD094-rhArg (SEQ ID NO: 50) and CQ treatment was analyzed by software CalcuSyn version 2.1. Three independent sets of experiments (n=3) were performed for each cell line.

HT29 = assay: cells; conditions: HT29, Day 3
Protocol: as §1, §2, §3

LOVO = assay: cells; conditions: LOVO, Day 3
Protocol: as §1, §2, §3

B1: N-ABD094-rhArg: albumin binding domain ABD094 fused N-terminally to recombinant human arginase I, SEQ ID NO: 50 (protein)
chain: MHHHHHHDEAVDANSLAEAKEAANAELDSYGVSDFYKRLIDKAKTVEGVEALKDAILAALPSGSNNNNNNGSGGMSAKSRTIGIIGAPFSKGQPRGGVEEGPTVLRKAGLLEKLKEQECDVKDYGDLPFADIPNDSPFQIVKNPRSVGKASEQLAGKVAEVKKNGRISLVLGGDHSLAIGSISGHARVHPDLGVIWVDAHTDINTPLTTTSGNLHGQPVSFLLKELKGKIPDVPGFSWVTPCISAKDIVYIGLRDVDPGEHYILKTLGIKYFSMTEVDRLGIGKVMEETLSYLLGRKKRPIHLSFDVDGLDPSFTPATGTPVVGGLTYREGLYITEEIYKTGLLSGLDIMEVNPSLGKTPEEVTRTVNTAVAITLACFGLAREGNHKPIDYLNPPK
modifications: Mn2+; N-ABD094-rhArg, Synthesized in the Lab
average anti-rhArg antibody titer in plasma (ELISA) ([1]; 500U i.p. weekly for 8 months): 10^8
serum ALT, AST, creatinine and urine albumin/creatinine ratio vs vehicle ([1]; 500U weekly for 8 months): did not show any significant differences
plasma arginine concentrations throughout the study period ([1]; 500U weekly for 8 months, Biochrom 30 detection limit): < 3 µM
vascular reactivity of isolated arteries (phenylephrine, acetylcholine, sodium nitroprusside) vs vehicle ([1]; 500U weekly for 8 months, wire myography): no significant differences
effect of anti-drug antibodies on arginase activity ([1]; plasma incubated with 1,000U/mL drug for 1 hr): did not have neutralizing effects
IC50 (HCT116): 0.22 U/ml
IC50 (HT29): 0.58 U/ml
IC50 (LOVO): 0.38 U/ml
